These results are taken from paper PMC2919055 (Proteins, 2010).

The data set concerns the molecule itself. The data set can be described thus: cross-linking.

“And” between values parts separate entries of the source, which are not always exact repeats. Identical values can stand only once. *: point of attachment. Carboxymethyl = O=C(O)C*

B1: C-MBD of A. fulgidus CopA with carboxymethylated cysteines (domain or fragment, Archaeoglobus fulgidus, UniProt O29777 736-804, looked up)
chain: GDSVEKIVLELSGLSC(Carboxymethyl)HHC(Carboxymethyl)VARVKKALEEAGAKVEKVDLNEAVVAGNKEDVDKYIKAVEAAGYQAKLRS
Turning to B1, the stoichiometry N (commonly a count of units in the complex or per binding partner) is 2 and 4.
